Data: paper PMC5264503, “Structural and biophysical analysis of nuclease protein antibiotics” (Biochemical Journal, 2016)

B1: ImS2 (pyocin S2 immunity protein) (natural protein)
chain: MKSKISEYTEKEFLEFVKDIYTNNKKKFPTEESHIQAVLEFKKLTEHPSGSDLLYYPNENREDSPAGVVKEVKEWRASKGLPGFKAG
notes: not shown: His6, C-terminal, kept

Tests used:
[1] = biological target: wild-type ColE9 (colicin E9) (E. coli) (UniProt P09883); experiment: stopped-flow fluorescence; wild-type ColE9 under the same conditions (PBS pH 7.4, 25 °C); data not shown
wild-type ColE9 (colicin E9) (E. coli), sequence (P09883 whole entry): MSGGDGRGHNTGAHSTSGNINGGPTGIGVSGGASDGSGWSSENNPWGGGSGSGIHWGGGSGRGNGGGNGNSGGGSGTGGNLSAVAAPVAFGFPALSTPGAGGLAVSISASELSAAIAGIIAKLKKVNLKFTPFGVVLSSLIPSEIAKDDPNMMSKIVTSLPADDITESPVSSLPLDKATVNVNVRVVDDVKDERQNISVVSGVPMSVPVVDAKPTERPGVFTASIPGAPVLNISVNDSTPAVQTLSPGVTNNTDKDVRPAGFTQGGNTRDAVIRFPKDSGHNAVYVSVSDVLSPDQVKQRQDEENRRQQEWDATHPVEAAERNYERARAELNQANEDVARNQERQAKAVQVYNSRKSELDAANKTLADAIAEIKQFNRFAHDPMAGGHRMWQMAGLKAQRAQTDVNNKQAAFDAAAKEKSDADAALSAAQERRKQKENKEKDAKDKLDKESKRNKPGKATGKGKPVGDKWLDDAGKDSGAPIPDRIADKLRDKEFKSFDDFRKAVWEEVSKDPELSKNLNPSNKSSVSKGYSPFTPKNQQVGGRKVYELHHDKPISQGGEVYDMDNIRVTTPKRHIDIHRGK

[2] = biological target: pyocin S2 (P. aeruginosa, UniProt Q06584 1-689); experiment: SAXS; conditions: both partners purified
pyocin S2, sequence (Q06584 whole entry): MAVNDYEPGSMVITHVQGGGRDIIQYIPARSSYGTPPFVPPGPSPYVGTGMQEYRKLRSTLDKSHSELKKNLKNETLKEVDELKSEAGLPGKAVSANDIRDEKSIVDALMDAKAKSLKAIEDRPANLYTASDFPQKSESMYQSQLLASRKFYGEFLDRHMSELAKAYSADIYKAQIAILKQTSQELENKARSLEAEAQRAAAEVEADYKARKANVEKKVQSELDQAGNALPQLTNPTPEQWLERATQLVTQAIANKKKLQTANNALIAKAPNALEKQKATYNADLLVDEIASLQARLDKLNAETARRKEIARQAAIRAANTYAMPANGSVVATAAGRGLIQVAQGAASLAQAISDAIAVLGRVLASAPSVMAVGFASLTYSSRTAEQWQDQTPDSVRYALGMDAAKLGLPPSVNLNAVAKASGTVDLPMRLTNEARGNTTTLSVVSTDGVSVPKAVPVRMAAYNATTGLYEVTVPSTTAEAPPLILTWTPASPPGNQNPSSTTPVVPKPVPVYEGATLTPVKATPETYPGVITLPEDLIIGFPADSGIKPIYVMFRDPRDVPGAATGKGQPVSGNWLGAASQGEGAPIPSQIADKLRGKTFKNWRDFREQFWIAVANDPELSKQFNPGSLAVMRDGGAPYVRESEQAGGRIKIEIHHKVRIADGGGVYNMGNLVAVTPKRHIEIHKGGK

| Molecule | k1 (bimolecular collision) [1] [M⁻¹ s⁻¹] | k2 app (conformational change) [1] [s⁻¹] | binding result [2] |
| --- | --- | --- | --- |
| Im9 (immunity protein 9) (from UniProt P13479 1-86) (natural protein) | 1.28e+08 | 2.76 |  |
| B1 |  |  | binds |
